Measurements as given in patent US20110020842.

How the values were obtained:
[1] = biological target: arrayed peptide library (198 peptide mixtures with a central fixed Ser/Thr phosphorylation site, degenerate flanking positions and a carboxy-terminal biotin tag)
[2] = biological target: T1, consensus peptide substrate eEF2p (Ac-RKKYKFNEDTERRRFL)
T1 chain: RKKYKFNEDTERRRFL

B1: eEF2 kinase (Elongation Factor 2 Kinase) (protein)
chain: MADEDLIFRLEGVDGGQSPRAGHDGDSDGDSDDEEGYFICPITDDPSSNQNVNSKVNKYYSNLTKSERYSSSGSPANSFHFKEAWKHAIQKAKHMPDPWAEFHLEDIATERATRHRYNAVTGEWLDDEVLIKMASQPFGRGAMRECFRTKKLSNFLHAQQWKGASNYVAKRYIEPVDRDVYFEDVRLQMEAKLWGEEYNRHKPPKQVDIMQMCIIELKDRPGKPLFHLEHYIEGKYIKYNSNSGFVRDDNIRLTPQAFSHFTFERSGHQLIVVDIQGVGDLYTDPQIHTETGTDFGDGNLGVRGMALFFYSHACNRICESMGLAPFDLSPRERDAVNQNTKLLQSAKTILRGTEEKCGSPQVRTLSGSRPPLLRPLSENSGDENMSDVTFDSLPSSPSSATPHSQKLDHLHWPVFSDLDNMASRDHDHLDNHRESENSGDSGYPSEKRGELDDPEPREHGHSYSNRKYESDEDSLGSSGRVCVEKWNLLNSSRLHLPRASAVALEVQRLNALDLEKKIGKSILGKVHLAMVRYHEGGRFCEKGEEWDQESAVFHLEHAANLGELEAIVGLGLMYSQLPHHILADVSLKETEENKTKGFDYLLKAAEAGDRQSMILVARAFDSGQNLSPDRCQDWLEALHWYNTALEMTDCDEGGEYDGMQDEPRYMMLAREAEMLFTGGYGLEKDPQRSGDLYTQAAEAAMEAMKGRLANQYYQKAEEAWAQMEE
- phosphorylation of peptide library (radiolabel incorporation) [1]: The kinase was able to efficiently phosphorylate peptides within the library
- fold increase in activity as compared to peptide MH-U [2]: 30 to 35 fold increase in activity
- phosphorylation at a single substrate concentration (100 µM) [2]: both peptides are efficiently phosphorylated by their respective kinases
